Experimental data: patent publication US20240150473A1 (SURROZEN OPERATING, published 2024)

Columns and labels:
Fzd5 CRD (biotinylated) = biological target: T1, Fzd5 CRD (biotinylated) (UniProt Q13467 27-155, limits assumed, biotinylated (site not stated)); test: BLI (Octet Red 96), biotinylated Fzd5 CRD captured on SA biosensor, R2M13 as analyte at several concentrations, 1:1 fit; the legend paragraph 32 says IgG, the methods paragraph 311 say R2M13 Fab
T1 construct: domain: CRD
T1 sequence (looked up): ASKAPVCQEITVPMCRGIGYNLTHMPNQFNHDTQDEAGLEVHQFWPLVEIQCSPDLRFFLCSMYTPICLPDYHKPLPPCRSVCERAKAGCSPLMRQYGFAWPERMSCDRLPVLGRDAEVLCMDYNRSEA
Method: (§1) Biotinylated CRDs of Fzds diluted to 25 nM in the running buffer (PBS, 0.05% Tween-20, 0.5% BSA, pH 7.2) were captured to the SA biosensor followed by dipping into wells containing the R2M13 Fab protein at different concentrations in running buffer or into a well with only running buffer as a reference channel. KD for each binder was calculated by Octet System software, based on fitting to a 1:1 binding model. Binding specificities of R2M13 IgG to 10 Fzds were also examined by the BLI assay. Biotinylated Fzd CRDs (H. Chen, Lu, Lee, & Li, 2020) diluted to 50 nM in the running buffer were captured to the SA biosensor followed by dipping into wells containing R2M13 IgG at 200 nM in running buffer.

Fzd8 CRD (biotinylated) = biological target: T2, Fzd8 CRD (biotinylated) (UniProt Q9H461 28-155, limits assumed, biotinylated (site not stated)); test: BLI (Octet Red 96), biotinylated Fzd8 CRD captured on SA biosensor, R2M13 as analyte at several concentrations, 1:1 fit; the legend paragraph 33 says IgG, the methods paragraph 311 say R2M13 Fab
T2 construct: domain: CRD
T2 sequence (looked up): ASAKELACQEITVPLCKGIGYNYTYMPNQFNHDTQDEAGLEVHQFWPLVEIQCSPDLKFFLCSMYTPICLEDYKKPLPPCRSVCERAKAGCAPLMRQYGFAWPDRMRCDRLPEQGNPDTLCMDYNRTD
Method: as §1

biotinylated LRP6E3E4 [1] = biological target: T3, biotinylated LRP6E3E4 (UniProt O75581 631-1246, limits assumed, biotinylated (site not stated)); test: BLI (Octet Red 96), biotinylated LRP6E3E4 on streptavidin sensor, 1:1 fit; SEC fraction D3 (first block)
T3 construct: domain: E3E4; also called Lrp6E3E4 domain; Lrp6 receptor
T3 sequence (looked up): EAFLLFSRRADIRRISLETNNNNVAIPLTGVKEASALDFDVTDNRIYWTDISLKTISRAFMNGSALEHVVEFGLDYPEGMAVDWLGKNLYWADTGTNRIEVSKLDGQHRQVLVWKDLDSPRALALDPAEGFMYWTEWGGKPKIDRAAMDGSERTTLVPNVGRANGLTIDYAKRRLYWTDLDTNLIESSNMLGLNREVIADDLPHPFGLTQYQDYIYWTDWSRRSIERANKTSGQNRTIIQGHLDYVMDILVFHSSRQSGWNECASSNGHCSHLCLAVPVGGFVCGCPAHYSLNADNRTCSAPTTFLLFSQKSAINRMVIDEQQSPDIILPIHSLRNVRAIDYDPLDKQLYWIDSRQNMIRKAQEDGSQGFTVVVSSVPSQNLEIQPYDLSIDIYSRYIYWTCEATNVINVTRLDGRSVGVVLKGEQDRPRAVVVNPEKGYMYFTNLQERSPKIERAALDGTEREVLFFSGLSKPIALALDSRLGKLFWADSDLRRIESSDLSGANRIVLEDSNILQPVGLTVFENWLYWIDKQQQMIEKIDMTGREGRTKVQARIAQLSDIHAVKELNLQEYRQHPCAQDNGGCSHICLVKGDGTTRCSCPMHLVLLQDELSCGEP
Method: (§2) Proteins were purified using His-Complete resin (Roche, USA) following standard procedures. Expression levels and homogeneity of VHH26 and its humanized variants were analyzed by SDS-PAGE and SEC (size-exclusion chromatography). […] Biotinylated LRP6E3E4 diluted to 50 nM in the running buffer (PBS, 0.05% Tween-20, 0.5% BSA, pH 7.2) were captured to the SA biosensor followed by dipping into wells containing the indicated VHH26 proteins at different concentrations in running buffer or into a well with only running buffer as a reference channel. KD for each binder was calculated by Octet System software, based on fitting to a 1:1 binding model. Kinetics values (Kon, Koff, KD) from each experiment was calculated from seven technical replicates of different concentrations of the molecule tested with Octet Data Analysis 9.0 (PALL ForteBio, Fremont, CA).
(§3) Central fractions of each of these peaks were examined by Octect-BLI for their ability interact with Lrp6. Kinetics parameters such as kon, koff, and KD for interaction between VHH26 constructs and Lrp6E3E4 domain are listed in Table 2.

biotinylated LRP6E3E4 [2] = biological target: T3, biotinylated LRP6E3E4; test: BLI (Octet Red 96), biotinylated LRP6E3E4 on streptavidin sensor, 1:1 fit; SEC fraction D3 (second block)
Method: as §2, §3

Binder	Kd (Fzd5 CRD (biotinylated))	Kd (Fzd8 CRD (biotinylated))	Kd (biotinylated LRP6E3E4 [1])	Kd (biotinylated LRP6E3E4 [2])
R2M13 IgG (the Fzd5,8 binder IgG of R2M13-26) (antibody, V domains shown, also called R2M13 antibody) VH: EVQLLQSGAEVKKPGSSVKVSCKASGGTFTYRYLHWVRQAPGQGLEWMGGIIPIFGTGNYAQKFQGRVTITADESTSTAYMELSSLRSEDTAVYYCASSMVRVPYYYGMDVWGQGTLVTVSS VL: not shown	57.5 nM	98.5 nM	–	–
VHH26 (parental) (VHH, Expressed in Expi293 cells with a C-terminal hexa-histidine tag; also called VHH26_His; parental VHH26) VHH: DVQLVESGGGLVQAGGSLRLACAGSGRIFAIYDIAWYRHPPGNQRELVAMIRPVVTEIDYADSVKGRFTISRNNAMKTVYLQMNNLKPEDTAVYYCNAKRPWGSRDEYWGQGTQVTVSS	–	–	17 nM	22 nM
